Data: publication PMC3937676, “Dynamics of Inter-heavy Chain Interactions in Human Immunoglobulin G (IgG) Subclasses Studied by Kinetic Fab Arm Exchange^([image sbox.jpg])” (The Journal of Biological Chemistry, 2014)
One block for each molecule: values may come before it.

What was measured:
[1] = target: G3*01 Fc fragment (CH2CH3 of IgG3 allele IGHG3*01, G3m(b*), with an IgG4 hinge) (human); experiment: FRET or BRET; real-time half-molecule exchange of Fc fragments; 4 μg/ml Fc-488 and Fc-594 in PBS-P, each 1 h at 37 °C with 3 mM DTT, then mixed in equal volumes, 37 °C (IgG4-Fc-V397M/K392N at 10 μg/ml final); kobs taken as the CH3-CH3 dissociation rate (dimer to single chains)
[2] = target: human IgG1 antibody, half-molecule (heavy chain plus light chain) after reduction of the hinge disulfide bonds (human); experiment: FRET or BRET; real-time Fab arm (half-molecule) exchange of whole IgG; equimolar DyLight488- and DyLight594-labelled antibody, inter-heavy chain disulfide bonds fully reduced with DTT, 37 °C; first-order exponential fit; kobs taken as the CH3-CH3 dissociation rate (dimer to half-molecules)
[3] = target: human IgG2 antibody, half-molecule (heavy chain plus light chain) after reduction of the hinge disulfide bonds (human); experiment: as above
[4] = target: human IgG2 antibody, half-molecule (heavy chain plus light chain) after reduction of the hinge disulfide bonds (human); experiment: SEC; fluorescence-assisted HPLC; reduced (10 mM DTT) and alkylated (iodoacetamide) IgG, serial 4-fold dilutions 0.001-300 nM half-molecules with a small fixed dose of the DyLight-488 labelled equivalent, PBS with 0.1 mg/ml certolizumab pegol and 0.02% Tween 20, 37 °C up to 3 days; Superdex 200; dimer to half-molecules
[5] = target: human IgG3 antibody (IGHG3*01), half-molecule (heavy chain plus light chain) after reduction of the hinge disulfide bonds (human); experiment: FRET or BRET; real-time Fab arm (half-molecule) exchange of whole IgG; equimolar DyLight488- and DyLight594-labelled antibody, inter-heavy chain disulfide bonds fully reduced with DTT, 37 °C; first-order exponential fit; kobs taken as the CH3-CH3 dissociation rate (dimer to half-molecules)
[6] = target: human IgG4 antibody, half-molecule (heavy chain plus light chain) after reduction of the hinge disulfide bonds (human); experiment: as above
[7] = target: the molecule itself; experiment: FRET or BRET; real-time half-molecule exchange of Fc fragments; 4 μg/ml Fc-488 and Fc-594 in PBS-P, each 1 h at 37 °C with 3 mM DTT, then mixed in equal volumes, 37 °C (IgG4-Fc-V397M/K392N at 10 μg/ml final); kobs taken as the CH3-CH3 dissociation rate (dimer to single chains)
[8] = target: the molecule itself; experiment: FRET or BRET; equilibrium; 2-fold dilutions of equimolar Fc-488 and Fc-594, 2 h at 37 °C with 3 mM DTT; F620/F588 against total half-molecules; homodimerization model; dimer to single chains

fold faster dissociation than G3*06 [1]: > 10 fold
Molecule: G3*01 Fc fragment (CH2CH3 of IgG3 allele IGHG3*01, G3m(b*), with an IgG4 hinge) (domain or fragment)

half-life of dissociation (t1/2) [2]: 384 h | koff [2]: 5e-07 s⁻¹
Molecule: human IgG1 antibody, half-molecule (heavy chain plus light chain) after reduction of the hinge disulfide bonds

half-life of dissociation (t1/2) [3]: 6.5 h | koff [3]: 3e-05 s⁻¹ | Kd [4]: 0.023 nM
Molecule: human IgG2 antibody, half-molecule (heavy chain plus light chain) after reduction of the hinge disulfide bonds

half-life of dissociation (t1/2) [5]: 0.467 h | koff [5]: 0.0004 s⁻¹
Molecule: human IgG3 antibody (IGHG3*01), half-molecule (heavy chain plus light chain) after reduction of the hinge disulfide bonds

half-life of dissociation (t1/2) [6]: 6 min | koff [6]: 0.0018 s⁻¹
Molecule: human IgG4 antibody, half-molecule (heavy chain plus light chain) after reduction of the hinge disulfide bonds

B1: G3*03 Fc fragment (CH2CH3 of IgG3 allele IGHG3*03, G3m(c3c5*), with an IgG4 hinge) (domain or fragment)
chain: ESKYGPPCPSCPAPELLGGPSVFLFPPKPKDTLMISRTPEVTCVVVDVSHEDPEVQFKWYVDGVEVHNAKTKPREEQYNSTFRVVSVLTVLHQDWLNGKEYKCKVSNKALPAPIEKTISKTKGQPREPQVYTLPPSREEMTKNQVSLTCLVKGFYPSDIAVEWESSGQPENNYNTTPPVLDSDGSFFLYSRLTVDKSRWQEGNVFSCSVMHEALHNRFTQKSLSLSPGK
modifications: DyLight 488 or DyLight 594 amine reactive dye (average degree of labeling ~2 for Fc fragments); hinge disulfide bonds reduced with DTT
fold faster dissociation than IgG4 (m17) [7]: ~15 fold

B2: IgG4-V397M/K392N Fc fragment (domain or fragment)
chain: ESKYGPPCPSCPAPEFLGGPSVFLFPPKPKDTLMISRTPEVTCVVVDVSQEDPEVQFNWYVDGVEVHNAKTKPREEQFNSTYRVVSVLTVLHQDWLNGKEYKCKVSNKGLPSSIEKTISKAKGQPREPQVYTLPPSQEEMTKNQVSLTCLVKGFYPSDIAVEWESNGQPENNYNTTPPMLDSDGSFFLYSRLTVDKSRWQEGNVFSCSVMHEALHNHYTQKSLSLSLGK
modifications: DyLight 488 or DyLight 594 amine reactive dye (average degree of labeling ~2 for Fc fragments); hinge disulfide bonds reduced with DTT
koff [7]: 0.16 s⁻¹ | Kd [8]: 2300 nM

B3: G2-M397V Fc fragment (CH2CH3 of IgG2 with M397V, IgG4 hinge) (domain or fragment)
chain: ESKYGPPCPSCPAPPVAGPSVFLFPPKPKDTLMISRTPEVTCVVVDVSHEDPEVQFNWYVDGVEVHNAKTKPREEQFNSTFRVVSVLTVVHQDWLNGKEYKCKVSNKGLPAPIEKTISKTKGQPREPQVYTLPPSREEMTKNQVSLTCLVKGFYPSDISVEWESNGQPENNYKTTPPVLDSDGSFFLYSKLTVDKSRWQQGNVFSCSVMHEALHNHYTQKSLSLSPGK
modifications: DyLight 488 or DyLight 594 amine reactive dye (average degree of labeling ~2 for Fc fragments); hinge disulfide bonds reduced with DTT
koff [7]: < 1e-06 s⁻¹
